± gives the uncertainty stated by the source.
B1: Retinoic acid receptor beta, residues 85 to 161; numbered along this chain, P10826 (parent)
chain: YKPCFVCQDKSSGYHYGVSACEGCKGFFRRSIQKNMIYTCHRDKNCVINKVTRNRCQYCRLQKCFEVGMSKESVRND

Variants of: B1
Test: abundance fitness (aPCA) (normalised: wild type 0, dead -1); higher = more abundant; growth selection in yeast, the domain comes from the species named
Conditions: Homo sapiens

Variant	abundance fitness
YKPCFVCQDKSSGYHYGVSACEGCKGFFRRSIQKNMIYTCHRDLNCVINKVTRNRCQYCRLQKCFEVGMSKESVRND [K44L]	-0.059 ± 0.043
YKPCFVCQDKSSGYHYGVSACEGCKGFFRRSIQKNMIYTCHRDMNCVINKVTRNRCQYCRLQKCFEVGMSKESVRND [K44M]	0.032 ± 0.055
YKPCFVCQDKSSGYHYGVSACEGCKGFFRRSIQKNMIYTCHRDPNCVINKVTRNRCQYCRLQKCFEVGMSKESVRND [K44P]	-0.599 ± 0.21
YKPCFVCQDKSSGYHYGVSACEGCKGFFRRSIQKNMIYTCHRDQNCVINKVTRNRCQYCRLQKCFEVGMSKESVRND [K44Q]	0.166 ± 0.06
YKPCFVCQDKSSGYHYGVSACEGCKGFFRRSIQKNMIYTCHRDRNCVINKVTRNRCQYCRLQKCFEVGMSKESVRND [K44R]	0 ± 0.035
YKPCFVCQDKSSGYHYGVSACEGCKGFFRRSIQKNMIYTCHRDSNCVINKVTRNRCQYCRLQKCFEVGMSKESVRND [K44S]	0.056 ± 0.044
YKPCFVCQDKSSGYHYGVSACEGCKGFFRRSIQKNMIYTCHRDTNCVINKVTRNRCQYCRLQKCFEVGMSKESVRND [K44T]	-0.043 ± 0.069
YKPCFVCQDKSSGYHYGVSACEGCKGFFRRSIQKNMIYTCHRDVNCVINKVTRNRCQYCRLQKCFEVGMSKESVRND [K44V]	-0.356 ± 0.057
YKPCFVCQDKSSGYHYGVSACEGCKGFFRRSIQKNMIYTCHRDWNCVINKVTRNRCQYCRLQKCFEVGMSKESVRND [K44W]	-0.208 ± 0.051
YKPCFVCQDKSSGYHYGVSACEGCKGFFRRSIQKNMIYTCHRDYNCVINKVTRNRCQYCRLQKCFEVGMSKESVRND [K44Y]	-0.321 ± 0.098
YKPCFVCQDKSSGYHYGVSACEGCKGFFRRSIQKNMIYTCHRDKACVINKVTRNRCQYCRLQKCFEVGMSKESVRND [N45A]	0.068 ± 0.057
YKPCFVCQDKSSGYHYGVSACEGCKGFFRRSIQKNMIYTCHRDKCCVINKVTRNRCQYCRLQKCFEVGMSKESVRND [N45C]	0.02 ± 0.079
YKPCFVCQDKSSGYHYGVSACEGCKGFFRRSIQKNMIYTCHRDKDCVINKVTRNRCQYCRLQKCFEVGMSKESVRND [N45D]	-0.151 ± 0.13
YKPCFVCQDKSSGYHYGVSACEGCKGFFRRSIQKNMIYTCHRDKECVINKVTRNRCQYCRLQKCFEVGMSKESVRND [N45E]	0.049 ± 0.11
YKPCFVCQDKSSGYHYGVSACEGCKGFFRRSIQKNMIYTCHRDKFCVINKVTRNRCQYCRLQKCFEVGMSKESVRND [N45F]	-0.251 ± 0.088
YKPCFVCQDKSSGYHYGVSACEGCKGFFRRSIQKNMIYTCHRDKGCVINKVTRNRCQYCRLQKCFEVGMSKESVRND [N45G]	-0.044 ± 0.082
YKPCFVCQDKSSGYHYGVSACEGCKGFFRRSIQKNMIYTCHRDKHCVINKVTRNRCQYCRLQKCFEVGMSKESVRND [N45H]	-0.021 ± 0.059
YKPCFVCQDKSSGYHYGVSACEGCKGFFRRSIQKNMIYTCHRDKICVINKVTRNRCQYCRLQKCFEVGMSKESVRND [N45I]	0.054 ± 0.066
YKPCFVCQDKSSGYHYGVSACEGCKGFFRRSIQKNMIYTCHRDKKCVINKVTRNRCQYCRLQKCFEVGMSKESVRND [N45K]	0.053 ± 0.069
YKPCFVCQDKSSGYHYGVSACEGCKGFFRRSIQKNMIYTCHRDKLCVINKVTRNRCQYCRLQKCFEVGMSKESVRND [N45L]	0.02 ± 0.045
YKPCFVCQDKSSGYHYGVSACEGCKGFFRRSIQKNMIYTCHRDKMCVINKVTRNRCQYCRLQKCFEVGMSKESVRND [N45M]	-0.035 ± 0.087
YKPCFVCQDKSSGYHYGVSACEGCKGFFRRSIQKNMIYTCHRDKPCVINKVTRNRCQYCRLQKCFEVGMSKESVRND [N45P]	-0.025 ± 0.051
YKPCFVCQDKSSGYHYGVSACEGCKGFFRRSIQKNMIYTCHRDKQCVINKVTRNRCQYCRLQKCFEVGMSKESVRND [N45Q]	0.078 ± 0.068
YKPCFVCQDKSSGYHYGVSACEGCKGFFRRSIQKNMIYTCHRDKRCVINKVTRNRCQYCRLQKCFEVGMSKESVRND [N45R]	0.059 ± 0.054

Variant	abundance fitness
YKPCFVCQDKSSGYHYGVSACEGCKGFFRRSIQKNMIYTCHRDKSCVINKVTRNRCQYCRLQKCFEVGMSKESVRND [N45S]	-0.057 ± 0.053
YKPCFVCQDKSSGYHYGVSACEGCKGFFRRSIQKNMIYTCHRDKVCVINKVTRNRCQYCRLQKCFEVGMSKESVRND [N45V]	0.039 ± 0.065
YKPCFVCQDKSSGYHYGVSACEGCKGFFRRSIQKNMIYTCHRDKWCVINKVTRNRCQYCRLQKCFEVGMSKESVRND [N45W]	-0.302 ± 0.12
YKPCFVCQDKSSGYHYGVSACEGCKGFFRRSIQKNMIYTCHRDKYCVINKVTRNRCQYCRLQKCFEVGMSKESVRND [N45Y]	-0.477 ± 0.14
YKPCFVCQDKSSGYHYGVSACEGCKGFFRRSIQKNMIYTCHRDKNDVINKVTRNRCQYCRLQKCFEVGMSKESVRND [C46D]	-0.352 ± 0.13
YKPCFVCQDKSSGYHYGVSACEGCKGFFRRSIQKNMIYTCHRDKNEVINKVTRNRCQYCRLQKCFEVGMSKESVRND [C46E]	-0.474 ± 0.13
YKPCFVCQDKSSGYHYGVSACEGCKGFFRRSIQKNMIYTCHRDKNFVINKVTRNRCQYCRLQKCFEVGMSKESVRND [C46F]	-0.988 ± 0.23
YKPCFVCQDKSSGYHYGVSACEGCKGFFRRSIQKNMIYTCHRDKNGVINKVTRNRCQYCRLQKCFEVGMSKESVRND [C46G]	-0.123 ± 0.1
YKPCFVCQDKSSGYHYGVSACEGCKGFFRRSIQKNMIYTCHRDKNHVINKVTRNRCQYCRLQKCFEVGMSKESVRND [C46H]	-0.475 ± 0.13
YKPCFVCQDKSSGYHYGVSACEGCKGFFRRSIQKNMIYTCHRDKNIVINKVTRNRCQYCRLQKCFEVGMSKESVRND [C46I]	-0.711 ± 0.17
YKPCFVCQDKSSGYHYGVSACEGCKGFFRRSIQKNMIYTCHRDKNKVINKVTRNRCQYCRLQKCFEVGMSKESVRND [C46K]	-1 ± 0.26
YKPCFVCQDKSSGYHYGVSACEGCKGFFRRSIQKNMIYTCHRDKNLVINKVTRNRCQYCRLQKCFEVGMSKESVRND [C46L]	-0.668 ± 0.076
YKPCFVCQDKSSGYHYGVSACEGCKGFFRRSIQKNMIYTCHRDKNNVINKVTRNRCQYCRLQKCFEVGMSKESVRND [C46N]	-0.704 ± 0.15
YKPCFVCQDKSSGYHYGVSACEGCKGFFRRSIQKNMIYTCHRDKNPVINKVTRNRCQYCRLQKCFEVGMSKESVRND [C46P]	-0.94 ± 0.15
YKPCFVCQDKSSGYHYGVSACEGCKGFFRRSIQKNMIYTCHRDKNQVINKVTRNRCQYCRLQKCFEVGMSKESVRND [C46Q]	-1.01 ± 0.23
YKPCFVCQDKSSGYHYGVSACEGCKGFFRRSIQKNMIYTCHRDKNRVINKVTRNRCQYCRLQKCFEVGMSKESVRND [C46R]	-0.767 ± 0.12
YKPCFVCQDKSSGYHYGVSACEGCKGFFRRSIQKNMIYTCHRDKNSVINKVTRNRCQYCRLQKCFEVGMSKESVRND [C46S]	-0.562 ± 0.074
YKPCFVCQDKSSGYHYGVSACEGCKGFFRRSIQKNMIYTCHRDKNTVINKVTRNRCQYCRLQKCFEVGMSKESVRND [C46T]	-0.53 ± 0.083
YKPCFVCQDKSSGYHYGVSACEGCKGFFRRSIQKNMIYTCHRDKNVVINKVTRNRCQYCRLQKCFEVGMSKESVRND [C46V]	-0.737 ± 0.12
YKPCFVCQDKSSGYHYGVSACEGCKGFFRRSIQKNMIYTCHRDKNWVINKVTRNRCQYCRLQKCFEVGMSKESVRND [C46W]	-0.681 ± 0.15
YKPCFVCQDKSSGYHYGVSACEGCKGFFRRSIQKNMIYTCHRDKNCAINKVTRNRCQYCRLQKCFEVGMSKESVRND [V47A]	0.058 ± 0.042
YKPCFVCQDKSSGYHYGVSACEGCKGFFRRSIQKNMIYTCHRDKNCCINKVTRNRCQYCRLQKCFEVGMSKESVRND [V47C]	0.003 ± 0.044
YKPCFVCQDKSSGYHYGVSACEGCKGFFRRSIQKNMIYTCHRDKNCDINKVTRNRCQYCRLQKCFEVGMSKESVRND [V47D]	0.168 ± 0.063
YKPCFVCQDKSSGYHYGVSACEGCKGFFRRSIQKNMIYTCHRDKNCFINKVTRNRCQYCRLQKCFEVGMSKESVRND [V47F]	-0.11 ± 0.057

Variant	abundance fitness
YKPCFVCQDKSSGYHYGVSACEGCKGFFRRSIQKNMIYTCHRDKNCGINKVTRNRCQYCRLQKCFEVGMSKESVRND [V47G]	-0.096 ± 0.043
YKPCFVCQDKSSGYHYGVSACEGCKGFFRRSIQKNMIYTCHRDKNCHINKVTRNRCQYCRLQKCFEVGMSKESVRND [V47H]	-0.077 ± 0.049
YKPCFVCQDKSSGYHYGVSACEGCKGFFRRSIQKNMIYTCHRDKNCIINKVTRNRCQYCRLQKCFEVGMSKESVRND [V47I]	-0.082 ± 0.044
YKPCFVCQDKSSGYHYGVSACEGCKGFFRRSIQKNMIYTCHRDKNCLINKVTRNRCQYCRLQKCFEVGMSKESVRND [V47L]	0.03 ± 0.033
YKPCFVCQDKSSGYHYGVSACEGCKGFFRRSIQKNMIYTCHRDKNCMINKVTRNRCQYCRLQKCFEVGMSKESVRND [V47M]	0.075 ± 0.047
YKPCFVCQDKSSGYHYGVSACEGCKGFFRRSIQKNMIYTCHRDKNCNINKVTRNRCQYCRLQKCFEVGMSKESVRND [V47N]	-0.103 ± 0.066
YKPCFVCQDKSSGYHYGVSACEGCKGFFRRSIQKNMIYTCHRDKNCPINKVTRNRCQYCRLQKCFEVGMSKESVRND [V47P]	0.043 ± 0.041
YKPCFVCQDKSSGYHYGVSACEGCKGFFRRSIQKNMIYTCHRDKNCQINKVTRNRCQYCRLQKCFEVGMSKESVRND [V47Q]	0.026 ± 0.049
YKPCFVCQDKSSGYHYGVSACEGCKGFFRRSIQKNMIYTCHRDKNCRINKVTRNRCQYCRLQKCFEVGMSKESVRND [V47R]	-0.075 ± 0.037
YKPCFVCQDKSSGYHYGVSACEGCKGFFRRSIQKNMIYTCHRDKNCSINKVTRNRCQYCRLQKCFEVGMSKESVRND [V47S]	0.024 ± 0.033
YKPCFVCQDKSSGYHYGVSACEGCKGFFRRSIQKNMIYTCHRDKNCTINKVTRNRCQYCRLQKCFEVGMSKESVRND [V47T]	0.056 ± 0.038
YKPCFVCQDKSSGYHYGVSACEGCKGFFRRSIQKNMIYTCHRDKNCWINKVTRNRCQYCRLQKCFEVGMSKESVRND [V47W]	-0.048 ± 0.048
YKPCFVCQDKSSGYHYGVSACEGCKGFFRRSIQKNMIYTCHRDKNCYINKVTRNRCQYCRLQKCFEVGMSKESVRND [V47Y]	0.107 ± 0.053
YKPCFVCQDKSSGYHYGVSACEGCKGFFRRSIQKNMIYTCHRDKNCVANKVTRNRCQYCRLQKCFEVGMSKESVRND [I48A]	-0.531 ± 0.068
YKPCFVCQDKSSGYHYGVSACEGCKGFFRRSIQKNMIYTCHRDKNCVCNKVTRNRCQYCRLQKCFEVGMSKESVRND [I48C]	-0.72 ± 0.19
YKPCFVCQDKSSGYHYGVSACEGCKGFFRRSIQKNMIYTCHRDKNCVFNKVTRNRCQYCRLQKCFEVGMSKESVRND [I48F]	-0.078 ± 0.055
YKPCFVCQDKSSGYHYGVSACEGCKGFFRRSIQKNMIYTCHRDKNCVGNKVTRNRCQYCRLQKCFEVGMSKESVRND [I48G]	-0.605 ± 0.11
YKPCFVCQDKSSGYHYGVSACEGCKGFFRRSIQKNMIYTCHRDKNCVHNKVTRNRCQYCRLQKCFEVGMSKESVRND [I48H]	-0.505 ± 0.47
YKPCFVCQDKSSGYHYGVSACEGCKGFFRRSIQKNMIYTCHRDKNCVLNKVTRNRCQYCRLQKCFEVGMSKESVRND [I48L]	-0.096 ± 0.035
YKPCFVCQDKSSGYHYGVSACEGCKGFFRRSIQKNMIYTCHRDKNCVMNKVTRNRCQYCRLQKCFEVGMSKESVRND [I48M]	0.042 ± 0.059
YKPCFVCQDKSSGYHYGVSACEGCKGFFRRSIQKNMIYTCHRDKNCVNNKVTRNRCQYCRLQKCFEVGMSKESVRND [I48N]	-0.376 ± 0.17
YKPCFVCQDKSSGYHYGVSACEGCKGFFRRSIQKNMIYTCHRDKNCVPNKVTRNRCQYCRLQKCFEVGMSKESVRND [I48P]	-0.417 ± 0.07
YKPCFVCQDKSSGYHYGVSACEGCKGFFRRSIQKNMIYTCHRDKNCVSNKVTRNRCQYCRLQKCFEVGMSKESVRND [I48S]	-0.48 ± 0.061

— the Human Domainome abundance scans (Beltran et al. 2025)
